Common to all, as to type: biochemical
Data set [1] can be described thus: HTP-analysis of supernatants pretreated with base (MUGal hydrolysis). Conditions: challenge at pH 7.0; activity of the variant/activity of WT GLA (SEQ ID NO: 5); yeast supernatant. The protocol: (§1) Yeast (INVSc1) cells transformed with vectors expressing GLA and GLA variants using the lithium acetate method were selected on SD-Ura agar plates. After 72 h incubation at 30° C. colonies were placed into the wells of Axygen® 1.1 ml 96-well deep well plates filled with 200 μl/well SD-Ura broth (2 g/L SD-Ura, 6.8 g/L yeast nitrogen base without amino acids [Sigma Aldrich]), 3.06 g/L sodium dihydrogen phosphate, 0.804 g/L disodium hydrogen phosphate, pH 6.0 supplemented with 6% glucose. The cells were allowed to grow for 20-24 hours in a Kuhner shaker (250 rpm, 30° C., and 85% relative humidity). Overnight culture samples (20 μL) were transferred into Corning Costar® 96-well deep plates filled with 380 µL of SD-ura broth supplemented with 2% glucose. The plates were incubated for 66-84 h in a Kuhner shaker (250 rpm, 30° C., and 85% relative humidity). The cells were then pelleted (4000 rpm×20 min), and the supernatants isolated and stored at 4° C. prior to analysis.
GLA variants were challenged with basic (neutral) buffer to simulate the pHs that the variants encounter in the blood following their administration to a patient. First, 50 μL of yeast culture supernatant and 50 uL of McIlvaine buffer (pH 7.0-8.2) or 200 mM sodium bicarbonate (pH 9.1-9.7) were added to the wells of a 96-well round bottom plate. The plates were sealed and incubated at 37° C. for 1-18 h. For the assay, 10-50 μL of basic-pH-challenged sample was mixed with 0-40 μL, of McIlvaine buffer pH 4.8, 25 μL, of 1 M citrate buffer pH 4.3 and 25 μL, of 4 mM MUGal in McIlvaine buffer pH 4.8. The reactions were mixed briefly and incubated at 37° C. for 30-180 minutes, prior to quenching with 100 μL, of 1 M sodium carbonate. Hydrolysis was analyzed using a SpectraMax® M2 microplate reader monitoring fluorescence (Ex. 355 nm, Em. 448 nm).

The nature of data set [2]: HTP-analysis of supernatants pretreated with acid (MUGal hydrolysis). The conditions noted are these: challenge at pH 4.3; activity of the variant/activity of WT GLA (SEQ ID NO: 5); yeast supernatant. The protocol:
as §1
GLA variants were challenged with acidic buffer to simulate the extreme pHs that the variants may encounter in lysosomes. First, 50 μL of yeast culture supernatant and 50 uL of McIlvaine buffer (pH 3.3-4.3) were added to the wells of a 96-well round bottom plate. The plates were sealed with a PlateLoc Thermal Microplate Sealer (Agilent) and incubated at 37° C. for 1-3 h. For the assay, 10-50 uL of acid-pH-challenged sample was mixed with 0-40 μL, of McIlvaine buffer pH 4.8, 25 μL, of 1 M citrate buffer pH 4.3 and 25 μL, of 4 mM MUGal in McIlvaine buffer pH 4.8. The reactions were mixed briefly and incubated at 37° C. for 30-180 minutes, prior to quenching with 100 μL, of 1 M sodium carbonate. Hydrolysis was analyzed using a SpectraMax® M2 microplate reader monitoring fluorescence (Ex. 355 nm, Em. 448 nm).

Data set [3] in a line: HTP-analysis of yeast culture supernatants, no challenge (MUGal hydrolysis). Conditions: activity of the variant/activity of WT GLA (SEQ ID NO: 5), yeast supernatant. The method, then: as §1
GLA variant activity was determined by measuring the hydrolysis of 4-methylumbelliferyl α-D-galactopyranoside (MUGal). For this assay, 5-50 μL, of yeast culture supernatant produced as described above, was mixed with 0-45 μL, of McIlvaine Buffer (McIlvaine, J. Biol. Chem., 49:183-186 [1921]), pH 4.8 and 50 μL of 2 mM MUGal in 50 mM citrate, 200 mM KCl, pH 4.6 in a 96-well, black, opaque bottom plate. The reactions were mixed briefly and incubated at 37° C. for 30-180 minutes, prior to quenching with 100 μL, of 1 M sodium carbonate. Hydrolysis was analyzed using a SpectraMax® M2 microplate reader monitoring fluorescence (Ex. 355 nm, Em. 448 nm).

Substitutions are numbered along the chain they refer to.

Here are results for 12 molecules from US11278600B2, “Human alpha-galactosidase variants” (Codexis, Inc., priority 2014, dated 2022).

B1: 3 (protein)
chain: LDNGLARTPTMGWLHWERFMCNLDCQEEPDSCISEKLFMEMADLMVSDGWKDAGYEYLCIDDCWMAPQRDSEGRLQADPQRFPHGIRQLANYVHSKGLKLGIYADVGNKTCAGFPGSFGYYDIDAQTFADWGVDLLKFDGCYCDSLENLADGYKHMSLALNRTGRSIVYSCEWPLYMWPFQKPNYTEIRQYCNHWRNFADIDDSWKSIKSILDWTSFNQERIVDVAGPGGWNDPDMLVIGNFGLSWNQQVTQMALWAIMAAPLFMSNDLRHISPQAKALLQDKDVIAINQDPLGKQGYQLRQGDNFEVWERPLSGLAWAVAMINRQEIGGPRSYTIAVASLGKGVACNPACFITQLLPVKRKLGFYEWTSRLRSHINPTGTVLLQLENTMQMSLKDLL
modifications: Synthetic Polypeptide sequence of Variant No. 3 of mature Human GLA
For B1, the “Relative Activity of GLA Variants After Challenge at pH 7.0” value (shortened to “Relative Activity … at pH 7.0”) in data set [1] is on record as “+ (+ = 0.5 to 1.5 relative activity over WT GLA (SEQ ID NO: 5))”. Moreover, the “Relative Activity of GLA Variants After Challenge at pH 4.3” value (“Relative Activity … at pH 4.3” below) in data set [2] is reported as “+ (+ = 0.5 to 1.5 relative activity over WT GLA (SEQ ID NO: 5))”. The “Relative Activity of GLA Variants After No Challenge (NC)” value in data set [3] was “+ (+ = 0.5 to 1.5 relative activity over WT GLA (SEQ ID NO: 5))”.

B2: 9 (protein)
chain: B1 chain with Q302K, R373K, I376V
modifications: Synthetic Polypeptide sequence of Variant No. 9 of mature Human GLA
For B2, in data set [1], the “Relative Activity … at pH 7.0” value is on record as “+ (+ = 0.5 to 1.5 relative activity over WT GLA (SEQ ID NO: 5))”. In addition, the “Relative Activity … at pH 4.3” value in data set [2] is recorded as “+++ (+++ = >2.5 relative activity over WT GLA (SEQ ID NO: 5))”. Moreover, in data set [3], the “Relative Activity of GLA Variants After No Challenge (NC)” value is recorded as “+ (+ = 0.5 to 1.5 relative activity over WT GLA (SEQ ID NO: 5))”.

B3: 14 (protein)
chain: B1 chain with D48E, R373K, I376V
modifications: Synthetic Polypeptide sequence of Variant No. 14 of mature Human GLA
Regarding B3, in data set [1], the “Relative Activity … at pH 7.0” value was “++ (++ = >1.5 to 2.5 relative activity over WT GLA (SEQ ID NO: 5))”. Besides, in data set [2], the “Relative Activity … at pH 4.3” value is “+++ (+++ = >2.5 relative activity over WT GLA (SEQ ID NO: 5))”. Besides, in data set [3], the “Relative Activity of GLA Variants After No Challenge (NC)” value was “+ (+ = 0.5 to 1.5 relative activity over WT GLA (SEQ ID NO: 5))”.

B4: 11 (protein)
chain: B1 chain with D48E, I208V, N247D, Q299R, R373K, I376V
modifications: Synthetic Polypeptide sequence of Variant No. 11 of mature Human GLA
In the case of B4, the “Relative Activity … at pH 7.0” value in data set [1] is “++ (++ = >1.5 to 2.5 relative activity over WT GLA (SEQ ID NO: 5))”. For the same molecule, the “Relative Activity … at pH 4.3” value in data set [2] is “+++ (+++ = >2.5 relative activity over WT GLA (SEQ ID NO: 5))”. For the same molecule, the “Relative Activity of GLA Variants After No Challenge (NC)” value in data set [3] is “+ (+ = 0.5 to 1.5 relative activity over WT GLA (SEQ ID NO: 5))”.

B5: 6 (protein)
chain: B1 chain with I208V, R373K, I376V
modifications: Synthetic Polypeptide sequence of Variant No. 6 of mature Human GLA
Consider B5, for which the “Relative Activity … at pH 7.0” value in data set [1] is recorded as “+ (+ = 0.5 to 1.5 relative activity over WT GLA (SEQ ID NO: 5))”. Also, the “Relative Activity … at pH 4.3” value in data set [2] is listed as “+++ (+++ = >2.5 relative activity over WT GLA (SEQ ID NO: 5))”. Further, in data set [3], the “Relative Activity of GLA Variants After No Challenge (NC)” value is on record as “+ (+ = 0.5 to 1.5 relative activity over WT GLA (SEQ ID NO: 5))”.

B6: 8 (protein)
chain: B1 chain with N247D, Q302K, R373K
modifications: Synthetic Polypeptide sequence of Variant No. 8 of mature Human GLA
For B6, the “Relative Activity … at pH 7.0” value in data set [1] is recorded as “+++ (+++ = >2.5 relative activity over WT GLA (SEQ ID NO: 5))”. The “Relative Activity … at pH 4.3” value in data set [2] is “+++ (+++ = >2.5 relative activity over WT GLA (SEQ ID NO: 5))”. Moreover, in data set [3], the “Relative Activity of GLA Variants After No Challenge (NC)” value is listed as “++ (++ = >1.5 to 2.5 relative activity over WT GLA (SEQ ID NO: 5))”.

B7: 10 (protein)
chain: B1 chain with D48E, I208V, N247D
modifications: Synthetic Polypeptide sequence of Variant No. 10 of mature Human GLA
B7: the “Relative Activity … at pH 7.0” value in data set [1] is listed as “++ (++ = >1.5 to 2.5 relative activity over WT GLA (SEQ ID NO: 5))”. The “Relative Activity … at pH 4.3” value in data set [2] was “+++ (+++ = >2.5 relative activity over WT GLA (SEQ ID NO: 5))”. In data set [3], the “Relative Activity of GLA Variants After No Challenge (NC)” value is given as “++ (++ = >1.5 to 2.5 relative activity over WT GLA (SEQ ID NO: 5))”.

B8: 7 (protein)
chain: B1 chain with N247D, Q299R, Q302K, R373K, I376V
modifications: Synthetic Polypeptide sequence of Variant No. 7 of mature Human GLA
As to B8, the “Relative Activity … at pH 7.0” value in data set [1] is listed as “+ (+ = 0.5 to 1.5 relative activity over WT GLA (SEQ ID NO: 5))”. Moreover, in data set [2], the “Relative Activity … at pH 4.3” value is reported as “++ (++ = >1.5 to 2.5 relative activity over WT GLA (SEQ ID NO: 5))”. The “Relative Activity of GLA Variants After No Challenge (NC)” value in data set [3] is recorded as “+ (+ = 0.5 to 1.5 relative activity over WT GLA (SEQ ID NO: 5))”.

B9: 13 (protein)
chain: B1 chain with D48E, N247D, R373K, I376V
modifications: Synthetic Polypeptide sequence of Variant No. 13 of mature Human GLA
Consider B9, for which the “Relative Activity … at pH 7.0” value in data set [1] was “++ (++ = >1.5 to 2.5 relative activity over WT GLA (SEQ ID NO: 5))”. For the same molecule, the “Relative Activity … at pH 4.3” value in data set [2] is “+++ (+++ = >2.5 relative activity over WT GLA (SEQ ID NO: 5))”. Further, the “Relative Activity of GLA Variants After No Challenge (NC)” value in data set [3] is reported as “++ (++ = >1.5 to 2.5 relative activity over WT GLA (SEQ ID NO: 5))”.

B10: 5 (protein)
chain: B1 chain with I208V, R373K
modifications: Synthetic Polypeptide sequence of Variant No. 5 of mature Human GLA
Regarding B10, the “Relative Activity … at pH 7.0” value in data set [1] is on record as “++ (++ = >1.5 to 2.5 relative activity over WT GLA (SEQ ID NO: 5))”. Also, in data set [2], the “Relative Activity … at pH 4.3” value was “++ (++ = >1.5 to 2.5 relative activity over WT GLA (SEQ ID NO: 5))”. Besides, the “Relative Activity of GLA Variants After No Challenge (NC)” value in data set [3] is on record as “++ (++ = >1.5 to 2.5 relative activity over WT GLA (SEQ ID NO: 5))”.

B11: 12 (protein)
chain: B1 chain with D48E, I208V, Q299R, R373K, I376V
modifications: Synthetic Polypeptide sequence of Variant No. 12 of mature Human GLA
Regarding B11, the “Relative Activity … at pH 7.0” value in data set [1] is listed as “+ (+ = 0.5 to 1.5 relative activity over WT GLA (SEQ ID NO: 5))”. Also, the “Relative Activity … at pH 4.3” value in data set [2] is recorded as “++ (++ = >1.5 to 2.5 relative activity over WT GLA (SEQ ID NO: 5))”. Besides, the “Relative Activity of GLA Variants After No Challenge (NC)” value in data set [3] is recorded as “+ (+ = 0.5 to 1.5 relative activity over WT GLA (SEQ ID NO: 5))”.

B12: 4 (protein)
chain: B1 chain with I208V, N247D, Q299R, Q302K, R373K, I376V
modifications: Synthetic Polypeptide sequence of Variant No. 4 of mature Human GLA
Turning to B12, the “Relative Activity … at pH 7.0” value in data set [1] is “+ (+ = 0.5 to 1.5 relative activity over WT GLA (SEQ ID NO: 5))”. For the same molecule, the “Relative Activity … at pH 4.3” value in data set [2] was “+++ (+++ = >2.5 relative activity over WT GLA (SEQ ID NO: 5))”. For the same molecule, in data set [3], the “Relative Activity of GLA Variants After No Challenge (NC)” value is given as “+ (+ = 0.5 to 1.5 relative activity over WT GLA (SEQ ID NO: 5))”.
